25 molecules from US5994296A, “Human mutant tissue factor compositions useful as tissue factor antagonists” (priority 1998, dated 1999) can be followed below.

B1: Ser-16: human tissue factor mutant with alanine substituted for Ser-16 (protein, UniProt P13726 33-295, looked up, variant S16A)
Tissue factor: SGTTNTVAAYNLTWKATNFKTILEWEPKPVNQVYTVQISTKSGDWKSKCFYTTDTECDLTDEIVKDVKQTYLARVFSYPAGNVESTGSAGEPLYENSPEFTPYLETNLGQPTIQSFEQVGTKVNVTVEDERTLVRRNNTFLSLRDVFGKDLIYTLYYWKSSSSGKKTAKTNTNEFLIDVDKGENYCFSVQAVIPSRTVNRKSTDSPVECMGQEKGEFREIFYIIGAVVFVVIILVIILAISLHKCRKAGVGQSWKENSPLNVS
B2: Ile-22 to Ala: human tissue factor mutant with alanine substituted for Ile-22 (protein, UniProt P13726 33-295, looked up, variant I22A)
Tissue factor: B1 Tissue factor with A16S, I22A
B3: S39-T40-S42: human tissue factor triple mutant with alanines at positions 39, 40 and 42 (protein, UniProt P13726 33-295, looked up, variant S39A T40A S42A)
Tissue factor: B1 Tissue factor with A16S, S39A, T40A, S42A
B4: Thr-106: human tissue factor mutant with Ala replacement for Thr-106 (protein, UniProt P13726 33-295, looked up, variant T106A)
Tissue factor: B1 Tissue factor with A16S, T106A
B5: Val-67: human tissue factor mutant with alanine substituted for Val-67 (protein, UniProt P13726 33-295, looked up, variant V67A)
Tissue factor: B1 Tissue factor with A16S, V67A
B6: Arg-136: human tissue factor alanine mutant at Arg-136 (protein, UniProt P13726 33-295, looked up, variant R136A)
Tissue factor: B1 Tissue factor with A16S, R136A
B7: K65-D66-K68: human tissue factor triple alanine mutant at positions 65, 66 and 68 (protein, UniProt P13726 33-295, looked up, variant K65A D66A K68A)
Tissue factor: B1 Tissue factor with A16S, K65A, D66A, K68A
B8: Asn-199: human tissue factor alanine mutant at Asn-199 (protein, UniProt P13726 33-295, looked up, variant N199A)
Tissue factor: B1 Tissue factor with A16S, N199A
B9: Arg-135: human tissue factor alanine mutant at Arg-135 (protein, UniProt P13726 33-295, looked up, variant R135A)
Tissue factor: B1 Tissue factor with A16S, R135A
B10: Val-198: human tissue factor alanine mutant at Val-198 (protein, UniProt P13726 33-295, looked up, variant V198A)
Tissue factor: B1 Tissue factor with A16S, V198A
B11: S16-T17-K20: human tissue factor triple mutant with alanines at positions 16, 17 and 20 (protein, UniProt P13726 33-295, looked up, variant S16A T17A K20A)
Tissue factor: B1 Tissue factor with T17A, K20A
B12: Arg-200/Lys-201: human tissue factor alanine double mutant at Arg-200 and Lys-201 (protein, UniProt P13726 33-295, looked up, variant R200A K201A)
Tissue factor: B1 Tissue factor with A16S, R200A, K201A
B13: Phe-140: human tissue factor alanine mutant at Phe-140 (protein, UniProt P13726 33-295, looked up, variant F140A)
Tissue factor: B1 Tissue factor with A16S, F140A
B14: Thr-17: human tissue factor mutant with alanine substituted for Thr-17 (protein, UniProt P13726 33-295, looked up, variant T17A)
Tissue factor: B1 Tissue factor with A16S, T17A
B15: Thr-139/Ser-142: human tissue factor alanine double mutant at Thr-139 and Ser-142 (protein, UniProt P13726 33-295, looked up, variant T139A S142A)
Tissue factor: B1 Tissue factor with A16S, T139A, S142A
B16: Phe-19: human tissue factor mutant with alanine substituted for Phe-19 (protein, UniProt P13726 33-295, looked up, variant F19A)
Tissue factor: B1 Tissue factor with A16S, F19A
B17: Val-146: human tissue factor alanine mutant at Val-146 (protein, UniProt P13726 33-295, looked up, variant V146A)
Tissue factor: B1 Tissue factor with A16S, V146A
B18: Arg-131: human tissue factor alanine mutant at Arg-131 (protein, UniProt P13726 33-295, looked up, variant R131A)
Tissue factor: B1 Tissue factor with A16S, R131A
B19: Tyr-71: human tissue factor mutant with alanine substituted for Tyr-71 (protein, UniProt P13726 33-295, looked up, variant Y71A)
Tissue factor: B1 Tissue factor with A16S, Y71A
B20: Asp-145: human tissue factor alanine mutant at Asp-145 (protein, UniProt P13726 33-295, looked up, variant D145A)
Tissue factor: B1 Tissue factor with A16S, D145A
B21: Phe-147: human tissue factor alanine mutant at Phe-147 (protein, UniProt P13726 33-295, looked up, variant F147A)
Tissue factor: B1 Tissue factor with A16S, F147A
B22: Glu-105: human tissue factor mutant with Ala replacement for Glu-105 (protein, UniProt P13726 33-295, looked up, variant E105A)
Tissue factor: B1 Tissue factor with A16S, E105A
B23: Arg-196: human tissue factor alanine mutant at Arg-196 (protein, UniProt P13726 33-295, looked up, variant R196A)
Tissue factor: B1 Tissue factor with A16S, R196A
B24: Val-64/Tyr-71 to Ala: human tissue factor double mutant with alanines for Val-64 and Tyr-71 (protein, UniProt P13726 33-295, looked up, variant V64A Y71A)
Tissue factor: B1 Tissue factor with A16S, V64A, Y71A
B25: Asp-58 to Ala: human tissue factor mutant with alanine substituted for Asp-58 (protein, UniProt P13726 33-295, looked up, variant D58A)
Tissue factor: B1 Tissue factor with A16S, D58A

Changes are numbered by the printed parent chain.

One assay relates to recalcified plasma. As to the kind of experiment: one stage clotting (coagulation) assay of full-length TF mutants in CHO cell lysates. The class given is biochemical. The note with it: coagulant activity normalized to antigen concentration; full-length mutants expressed in CHO cells. As to the method: The full-length TF mutants prepared above were analyzed for function by coagulation assay. […] Coagulation factor deficient plasmas were purchased from George King Bio-medical. The chromogenic substrate, Spectrozyme FXa, was from American Diagnostica Inc. (Greenwich, Conn.).
An alternative approach was to use a polyvalent antibody purified by affinity for capturing TF followed by detection with the TF8-5G9 monoclonal antibody described above.
Initiation of coagulation by wild-type and mutant TF in recalcified plasma was determined after lysis of cell pellets from 2×10^6 cells/ml for each expressed full-length mutant with 15 mM octyl-glucopyranoside in HBS for 15 minutes at 37C. followed by a 3-fold dilution.
All data represented are based on at least three independent determinations performed in duplicate.
Consider B1, for which the “reduction in specific functional activity (loss of function) relative to wild-type TF” value is reported as “more than 70%”.
With B2, the “reduction in specific functional activity (loss of function) relative to wild-type TF” value is reported as 35%.
As for B3, the “reduction in specific functional activity (loss of function) relative to wild-type TF” value is reported as 43%.
For B4, the “reduction in specific functional activity (loss of function) relative to wild-type TF” value is recorded as “more than 50%”.
Consider B5, for which the “reduction in specific functional activity (loss of function) relative to wild-type TF” value is recorded as 53%.
Consider B6, for which the “reduction in specific functional activity (loss of function) relative to wild-type TF” value is reported as 30-50%.
Same read-out and setting: to B7 belongs 70%.
With B8, the “reduction in specific functional activity (loss of function) relative to wild-type TF” value is recorded as 30-80%.
On to B9, for which the “reduction in specific functional activity (loss of function) relative to wild-type TF” value is on record as 30-50%.
Turning to B10, the “reduction in specific functional activity (loss of function) relative to wild-type TF” value is recorded as 30-80%.
Same read-out and setting: the same measure for B11: 98%; for B12: 30-80%.
In the case of B13, the “reduction in specific functional activity (loss of function) relative to wild-type TF” value is reported as 30-50%.
For B14, the “reduction in specific functional activity (loss of function) relative to wild-type TF” value is given as “more than 70%”.
Take B15: the “reduction in specific functional activity (loss of function) relative to wild-type TF” value is 30-50%.
Turning to B16, the “reduction in specific functional activity (loss of function) relative to wild-type TF” value is “more than 70%”.
With B17, the “reduction in specific functional activity (loss of function) relative to wild-type TF” value was 30-50%.
With B18, the “reduction in specific functional activity (loss of function) relative to wild-type TF” value is listed as 30-50%.
With B19, the “reduction in specific functional activity (loss of function) relative to wild-type TF” value worked out at 98%.
Turning to B20, the “reduction in specific functional activity (loss of function) relative to wild-type TF” value is given as 30-50%.
Same read-out and setting: the same measure for B21: 30-50%.
On to B22, for which the “reduction in specific functional activity (loss of function) relative to wild-type TF” value was “more than 50%”.

The same assay, now with this note: summary statement in the description.
Take B1: the “reduction in tissue factor procoagulant cofactor activity when compared to wt-TF” value is reported as no less than 75%.
Consider B8, for which the “reduction in tissue factor procoagulant cofactor activity when compared to wt-TF” value was no less than 75%.
Still for that read-out and setting: the same measure for B14: no less than 75%.

The next assay has as its system VIIa. As to the kind of experiment: linked chromogenic assay with purified VIIa and factor X (apparent dissociation constant of TF-VIIa). The assay is classed as binding. The following applies: 5 mM Ca2+, Factor X 100 nM. The protocol: The lysate was prepared by treating cell pellets with 15 mM octyl-glucopyranoside for 15 minutes at 37C. followed by a 3-fold dilution. […] Formed TF-VIIa complexes were quantified with substrate factor X added at 100 nM for a fixed time. Samples were then removed from the reaction and quenched in 100 mM EDTA in TBS (20 mM Tris-HCl, 140 mM NaCl, pH 7.4). The formation of Xa in the quenched reaction was determined with the chromogenic peptidyl substrate, Spectrozyme FXa (1.2 mM). The rate of Spectrozyme hydrolysis, measured as the increase in absorbance (mOD/min), was determined at ambient temperature in a kinetic plate reader (Molecular Devices, Mountain View, Calif.) followed by quenching and monitoring of product factor Xa formation using the Spectrozyme FXa.
Enzfitter (Elsevier Biosoft) programs were employed to calculate the KDapp from the experimentally determined bound VIIa, and free VIIa which was obtained by subtracting bound VIIa from the initial VIIa concentration.
On to B2, for which the “increase in KDapp for the TF-VIIa interaction compared to wild-type TF (ratio KD mutant/KD wild-type)” value stood at 11 fold.
The same measure, in the same setting: the same measure for B23: 3.5 fold; for B24: 2.1 fold.
In the case of B9, the “increase in KDapp for the TF-VIIa interaction compared to wild-type TF (ratio KD mutant/KD wild-type)” value is 7.4 fold.
Same read-out and setting: the same measure for B25: 41 fold; for B13: 18 fold.
